{"source": "paper PMC13322254", "key": {"[1]": {"molecular_target": "SB2F1 (Pseudomonas putida | Bradyrhizobium japonicum) (UniProt Q88JB0)", "assay": "SAXS + other: DLS; in solution with ATP and MgCl2, in the dark and after blue light illumination; SAXS at 10 °C in 20 mM Hepes pH 7.5, 150 mM NaCl, 2% glycerol, 2 mM TCEP, 1.5 mM ATP, 3 mM MgCl2, 0.64 to 4.18 mg/ml; DLS at 20 °C, ~1 mg/ml"}, "[2]": {"molecular_target": "SB2F1 (Pseudomonas putida | Bradyrhizobium japonicum) (UniProt Q88JB0)", "assay": "SEC; analytical SEC, in the dark only, Superdex 200 10/300 GL, 20 mM tris pH 8.0, 40 mM NaCl, 0.5 ml/min"}, "[3]": {"molecular_target": "SB2F1, SeMet-labeled (Pseudomonas putida | Bradyrhizobium japonicum) (UniProt Q88JB0)", "assay": "crystal structure; dark-grown crystals, sitting-drop vapor diffusion, 19 °C, 10 to 12% PEG-8000, 0.2 M NaCl, 0.1 M sodium citrate pH 5.8 to 6.1, 1 mM ATP, 2 mM MgCl2; for SB2F1 also dark-grown crystals illuminated with blue light before data collection"}, "[4]": {"molecular_target": "SB2F1-I66R, SeMet-labeled (Pseudomonas putida | Bradyrhizobium japonicum) (UniProt Q88JB0)", "assay": "crystal structure; dark-grown crystals, sitting-drop vapor diffusion, 19 °C, 10 to 12% PEG-8000, 0.2 M NaCl, 0.1 M sodium citrate pH 5.8 to 6.1, 1 mM ATP, 2 mM MgCl2; for SB2F1 also dark-grown crystals illuminated with blue light before data collection"}, "[5]": {"molecular_target": "SB2F1-I66R, SeMet-labeled (Pseudomonas putida | Bradyrhizobium japonicum) (UniProt Q88JB0)", "assay": "crystal structure; crystals grown under continuous blue light (450 nm), 19 °C, 16 to 20% PEG-3350, 0.2 M LiSO4, 0.1 M bicine pH 9.0 to 9.3, 1 mM ATP, 2 mM MgCl2"}}, "data": [{"substance": "SB2F1 (from UniProt Q88JB0 1-120) (enzyme)", "values": [{"measurement": "stoichiometry N", "setting": "[1]", "result": 2}, {"measurement": "stoichiometry N", "setting": "[2]", "result": 2}]}, {"substance": "SB2F1, SeMet-labeled (from UniProt Q88JB0 1-120) (enzyme)", "values": [{"measurement": "stoichiometry N", "setting": "[3]", "result": 2}]}, {"substance": "SB2F1-I66R, SeMet-labeled (from UniProt Q88JB0 1-120) (enzyme)", "values": [{"measurement": "stoichiometry N", "setting": "[4]", "result": 2}, {"measurement": "stoichiometry N", "setting": "[5]", "result": 2}]}]}
